Test results taken from article PMC7515726.

What was measured:
Assay in all cases: affinity purification with mass spectrometry
[1] = molecular target: Nuc1, acidic patch mutant nucleosome (hH2A.Dx10), biotinylated 185 bp 601 DNA (human) (UniProt P62807)
[2] = molecular target: Nuc2, disk patch 2 mutant nucleosome (hH2A.Dx2, hH2B.Cx8), biotinylated 185 bp 601 DNA (human) (UniProt Q71DI3)
[3] = molecular target: Nuc3, disk patch 3 mutant nucleosome (hH3.2x10, hH4x24, hH2B.Cx9), biotinylated 185 bp 601 DNA (human) (UniProt P20671)

Row | Binder | fold decrease in binding vs wild-type nucleosome [1] | fold decrease in binding vs wild-type nucleosome [2] | fold decrease in binding vs wild-type nucleosome [3]
1 | OGT O-GlcNAc transferase (enzyme) MASSVGNVADSTEPTKRMLSFQGLAELAHREYQAGDFEAAERHCMQLWRQEPDNTGVLLLLSSIHFQCRRLDRSAHFSTLAIKQNPLLAEAYSNLGNVYKERGQLQEAIEHYRHALRLKPDFIDGYINLAAALVAAGDMEGAVQAYVSALQYNPDLYCVRSDLGNLLKALGRLEEAKACYLKAIETQPNFAVAWSNLGCVFNAQGEIWLAIHHFEKAVTLDPNFLDAYINLGNVLKEARIFDRAVAAYLRALSLSPNHAVVHGNLACVYYEQGLIDLAIDTYRRAIELQPHFPDAYCNLANALKEKGSVAEAEDCYNTALRLCPTHADSLNNLANIKREQGNIEEAVRLYRKALEVFPEFAAAHSNLASVLQQQGKLQEALMHYKEAIRISPTFADAYSNMGNTLKEMQDVQGALQCYTRAIQINPAFADAHSNLASIHKDSGNIPEAIASYRTALKLKPDFPDAYCNLAHCLQIVCDWTDYDERMKKLVSIVAEQLEKNRLPSVHPHHSMLYPLSHGFRKAIAERHGNLCLDKINVLHKPPYEHPKDLKLSDGRLRVGYVSSDFGNHPTSHLMQSIPGMHNPDKFEVFCYALSPDDGTNFRVKVMAEANHFIDLSQIPCNGKAADRIHQDGIHILVNMNGYTKGARNELFALRPAPIQAMWLGYPGTSGALFMDYIITDQETSPAEVAEQYSEKLAYMPHTFFIGDHANMFPHLKKKAVIDFKSNGHIYDNRIVLNGIDLKAFLDSLPDVKIVKMKCPDGGDNPDSSNTALNMPVIPMNTIAEAVIEMINRGQIQITINGFSISNGLATTQINNKAATGEEVPRTIIVTTRSQYGLPEDAIVYCNFNQLYKIDPSTLQMWANILKRVPNSVLWLLRFPAVGEPNIQQYAQNMGLPQNRIIFSPVAPKEEHVRRGQLADVCLDTPLCNGHTTGMDVLWAGTPMVTMPGETLASRVAASQLTCLGCLELIAKSRQEYEDIAVKLGTDLEYLKKIRGKVWKQRISSPLFNTKQYTMELERLYLQMWEHYAAGNKPDHMIKPVEVTESA | 1.69 fold |  | 
2 | RCC1 (regulator of chromatin condensation) (natural protein) MPPKRIAKRRSPPEDAIPKSKKVKVSHRSHNTEPGLVLTLGQGDVGQLGLGESVLERKKPALVPLLQDVVQAEAGGMHTVCLSQSGQVYSFGCNDEGALGRDTSVEGSEMVPGKVELQEKVVQVSAGDSHTAALTEDGRVFLWGSFRDNNGVIGLLEPMKKSMVPVQVQLDAPVVKVASGNDHLVMLTNDGDLYTLGCGEQGQLGRVPELFANRGGRQGLGRLLVPRCVLLKSRGTRGRVRFQDAFCGAYFTFAISREGHVYGFGLSNYHQLGTPGTGSCFIPQNLTSFKNSTKSWVGFSGGQHHTVCMDSEGKAYSLGRAEYGRLGLGEGAEEKSIPTLISRLPVVSSVACGASVGYAVSKDGRVFAWGMGTNYQLGTGQDEDAWSPVEMTGKQLENRVVLTVSSGGQHTVLLVKDQAQS | 22 fold | 3.1 fold | 2.1 fold

Next, values leading:

Row | fold decrease in binding vs wild-type nucleosome [1] | fold decrease in binding vs wild-type nucleosome [2] | fold decrease in binding vs wild-type nucleosome [3] | Binder
3 | 1.61 fold |  |  | VRK1 kinase (enzyme) MPRVKAAQAGRPGPAKRRLAEQFAAGEVLTDMSRKEWKLGLPIGQGGFGCIYLADTNSSKPVGSDAPCVVKVEPSDNGPLFTELKFYQRAAKPEQIQKWIRTHKLKYLGVPKYWGSGLHDKNGKSYRFMIMDRFGSDLQKIYEANAKRFSRKTVLQLSLRILDILEYIHEHEYVHGDIKASNLLLSHKNPDQVYLVDYGLAYRYCPDGVHKEYKEDPKRCHDGTLEFTSIDAHKGVAPSRRGDLEILGYCMIQWLSGCLPWEDNLKDPNYVRDSKIRYRDNVAALMEKCFPEKNKPGEIAKYMESVKLLEYTEKPLYQNLRDILLQGLKAIGSKDDGKLDFSAVENGSVKTRPASKKRKKEAEESAVCAVEDMECSDTQVQEAAQTRSVESQGAIHGSMSQPAAGCSSSDSSRRQQHLGLEQDMLRLDRRGSRTRKKAQK
4 | 1.35 fold |  |  | cohesin complex protein SMC1A (natural protein) MGFLKLIEIENFKSYKGRQIIGPFQRFTAIIGPNGSGKSNLMDAISFVLGEKTSNLRVKTLRDLIHGAPVGKPAANRAFVSMVYSEEGAEDRTFARVIVGGSSEYKINNKVVQLHEYSEELEKLGILIKARNFLVFQGAVESIAMKNPKERTALFEEISRSGELAQEYDKRKKEMVKAEEDTQFNYHRKKNIAAERKEAKQEKEEADRYQRLKDEVVRAQVQLQLFKLYHNEVEIEKLNKELASKNKEIEKDKKRMDKVEDELKEKKKELGKMMREQQQIEKEIKEKDSELNQKRPQYIKAKENTSHKIKKLEAAKKSLQNAQKHYKKRKGDMDELEKEMLSVEKARQEFEERMEEESQSQGRDLTLEENQVKKYHRLKEEASKRAATLAQELEKFNRDQKADQDRLDLEERKKVETEAKIKQKLREIEENQKRIEKLEEYITTSKQSLEEQKKLEGELTEEVEMAKRRIDEINKELNQVMEQLGDARIDRQESSRQQRKAEIMESIKRLYPGSVYGRLIDLCQPTQKKYQIAVTKVLGKNMDAIIVDSEKTGRDCIQYIKEQRGEPETFLPLDYLEVKPTDEKLRELKGAKLVIDVIRYEPPHIKKALQYACGNALVCDNVEDARRIAFGGHQRHKTVALDGTLFQKSGVISGGASDLKAKARRWDEKAVDKLKEKKERLTEELKEQMKAKRKEAELRQVQSQAHGLQMRLKYSQSDLEQTKTRHLALNLQEKSKLESELANFGPRINDIKRIIQSREREMKDLKEKMNQVEDEVFEEFCREIGVRNIREFEEEKVKRQNEIAKKRLEFENQKTRLGIQLDFEKNQLKEDQDKVHMWEQTVKKDENEIEKLKKEEQRHMKIIDETMAQLQDLKNQHLAKKSEVNDKNHEMEEIRKKLGGANKEMTHLQKEVTAIETKLEQKRSDRHNLLQACKMQDIKLPLSKGTMDDISQEEGSSQGEESVSGSQRTSSIYAREALIEIDYGDLCEDLKDAQAEEEIKQEMNTLQQKLNEQQSVLQRIAAPNMKAMEKLESVRDKFQETSDEFEAARKRAKKAKQAFEQIKKERFDRFNACFESVATNIDEIYKALSRNSSAQAFLGPENPEEPYLDGINYNCVAPGKRFRPMDNLSGGEKTVAALALLFAIHSYKPAPFFVLDEIDAALDNTNIGKVANYIKEQSTCNFQAIVISLKEEFYTKAESLIGVYPEQGDCVISKVLTFDLTKYPDANPNPNEQ
5 | 1.94 fold |  |  | tyrosine-protein kinase BAZ1B (enzyme) MAPLLGRKPFPLVKPLPGEEPLFTIPHTQEAFRTREEYEARLERYSERIWTCKSTGSSQLTHKEAWEEEQEVAELLKEEFPNWYEKLVLEMVHHNTASLEKLVDSAWLEIMTKYAVGEECDFEVGKEKMLKVKIVKIHPLEKVDEEAVEKKSDGACDSPSSDKENSSQMAQDLQKKETVVKEDEGRRESINDRARRSPRKLPTSLKKGERKWAPPKFLPHKYDVKLQNEDKIISNVPADSLIRTERPPNKEILRYFIRHNALRAGTGENAPWVVEDELVKKYSLPSKFSDFLLDPYKYMTLNPSTKRRNTGSPDRKPSKKPKRDSSSLSSPLNPKLWCHVHLEKSLNGPPLKVKNSKNSKSPEEHLEGVMKIMSPNNNKLHSFHIPKKGPAAKKPGKHSDKPLKAKGRGKGILNGQKSTGNSKSPSKCVKTPKTKMKQMTLLDMAKGTQKMTRTPRSSGGVPRSSGKPHKHLPPAALHLIAYYKENKDKEDKKSALSCVISKTARLLSNEDRARLPEELRALVQKRYELLEHKKRWASMSEEQRKEYLKKKRQELKERLREKAKERREREMLERLEKQKRFEDQELGGRNLPAFRLVDTPEGLPNTLFGDVALVVEFLSCYSGLLLPDAQYPITAVSLMEALSADKGGFLYLNRVLVILLQTLLQDEIAEDYGELGMKLSEIPLTLHSVSELVRLCLRRCDVQEDSEGSETDDNKDSTPFEDNEVQDEFLEKLETSEFFELTSEEKLRILTALCHRILMTYSVQDHMETRQQVSAELWKERLAVLKEENDKKRAEKQKRKEMEARNKENGKEENVLGKVDRKKEIVKIEQQVEVEADDMISAVKSRRLLSMQAKRKREIQERETKVRLEREAEEERMRKHKAAAEKAFQEGIAKAKLVLRRTPIGTDRNHNRYWLFSNEVPGLFIEKGWVHNSIDYRFKHHRKDHSNLPDDDYCPRSKKANLGKNASVNAHHGPALEAVETTVPKQGQNLWFLCDSQKELDELLSCLHPQGIRESQLKERLEKRYQEITHSIYLARKPNLGLKSCDGNQELLNFLRSDLIEVATRLQKGGLGYMEGTSEFEARVISLEKLKDFGECVIALQASVIKKFLQGFMAPKQKKRKLQSEDSTKSEEVDEEKKMVEEAKVASALEKWKTAIREAQTFSRMHVLLGMLDACIKWDMSAENARCKVCRKKGEDDKLILCDECNKAFHLFCLRPALYEVPDGEWQCPACQPPTARRNSRGRNYTEESTSEGSEGDESGEEEEEEEEEEEEEEDYEVAGLRLRPRKTIRGKQSVIPAARPGRPPGKKSHPARRSRPKDDPEVDDLVLQTKRISRRQSLELQKCEDILHKLVKYRFSWPFREPVTRDEAEDYYDVIEHPMDFQTIQNKCSCGNYRSVQEFLTDMKQVFANAELYNCRGSHVLSCMEKTEQCLLALLQKHLPGHPYVRRKRRKFPDRLADDEGDSDSESVGQSRGRRQKK
